This data set can be described thus: yeast display, Sf9 membrane polyspecificity reagent, FACS + sequencing; frameworks hold sequencing errors. An outline of the steps: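 Nanobodies came from a synthetic yeast display library in Saccharomyces cerevisiae BJ5465, induced with galactose for 36–48 hours and stained for 1 hour at 4 °C with 10% biotinylated, detergent-solubilized Sf9 membrane reagent. Cells were enriched on streptavidin microbeads and then FACS-sorted, with low and high (top ~1%) gates set on anti-HA fluorescence for expression and streptavidin fluorescence for reagent binding. Each polyreactivity label reflects the gate a clone came from. Genes were amplified by colony PCR, sequenced by MiSeq 2 × 250 and filtered by CDR length.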
Turning to “QVQLVESGGAFVQAGGSLRLSCAASGIIFERNAMGWYRQAPGNERELVAAISGGGSTNYADSVKGRFTISRDNEMNTVYLQRISLKPDDTAVYYCAGKAARRRGYYYWGQGTQVTVSS”, the “polyreactivity (PSR sort gate)” value is given as “high polyreactivity”.

For “QVQLVESGGALVQAGGRLRLSCAASGSILVTNDMGLYRQAPGKDRELEAAICWSGGSTYYADSVKGRFTISRDNAKNSVYLQMNSLKPEDTAVYYCAAGLGFLFARQALEFDYWGQGTKVTVSS”, the “polyreactivity (PSR sort gate)” value is “low polyreactivity”.

Take “QVQLVESGGALVQAGGRLRLSCAASGSTFTYNAMGWYRQAPGKERELVASISSGTTTYYADSVKGRFTISRDNAKNTVSLQMNSLKPEDTAVYDCAVDSWSRVQGWLAHNYDYWGQGTQVTVSS”: the “polyreactivity (PSR sort gate)” value is on record as “low polyreactivity”.

“QVQLVESGGALVQAGGSHRLSCAASGRIFAGNAMGWYRMAPGKEMELLAAISKSGGSTYYADSVKGRFTISRDNAKNTVYLQMNSLKAEDTAVSYCAKLYYPVSDQYDYYYWGPGTQVTVSS”: the “polyreactivity (PSR sort gate)” value was “low polyreactivity”.

Turning to “QVQLVESGGALVQAGGSIRLSCAASGRIFLHYAMGWYRQAPGKERELVAAISSSGGSTYYADSVKGRFTISRDNAKNTVYLQMKSLKPEDTAVYYCAAAYPVKTTEGYYYWGQGTHVTVSS”, the “polyreactivity (PSR sort gate)” value is “high polyreactivity”.

For “QVQLVESGGALVQAGGSLRISCAASGLIITHYAMGWYRQAPGKEMELVAAISNGGSTNYADSEKGRFTISRDNAKNTVYLEMNSLKPEDTAVSFCNARPNKYYAYPATRGKYYYWGQATQVTVSS”, the “polyreactivity (PSR sort gate)” value is recorded as “low polyreactivity”.

For the sequence “QVQLVESGGALVQAGGSLRISCAASGLIIVRKAMGLYRQAPGKERELVAAIRWSGGSTYYADSVKGRFTISRDNGNNTVFLQMNRLKPEDTSVYYCAATGYGFDMDYWGQGTQVNVSS”, the “polyreactivity (PSR sort gate)” value was “low polyreactivity”.

Consider “QVQLVESGGALVQAGGSLRISCAASGRTLSAYAMGLYRQAPGKERELVAVISRSGGRTYYADSVKGRFTISRDNAKNTVYLQMNSLKQEDSAVYYCAAGSSRLRALYNYWGQGTQVNVSS”, for which the “polyreactivity (PSR sort gate)” value is listed as “high polyreactivity”.

In the case of “QVQLVESGGALVQAGGSLRLSCAASAFIFRINAMGWYRQAPGKERELVAAISGSGGRTYYADSVKGRFTISRDNAKNTVYLQMNSLKPVDTAVYYCARSSGYGFNYWGQGTQVTVSS”, the “polyreactivity (PSR sort gate)” value is “high polyreactivity”.

Take “QVQLVESGGALVQAGGSLRLSCAASAGNFTGYAMGWSRQAPGKERELVATITSGGSTNYADSVKGRFTISRDNAKNSFYFQLNSLKPEDTAVYYCALDYIGDTPIWQYDYWGQGTQVTVSS”: the “polyreactivity (PSR sort gate)” value is “low polyreactivity”.

In the case of “QVQLVESGGALVQAGGSLRLSCAASGFIFHYYAMGWYRQAPGKERELVAAISKTGGSTYYADSVKGRFTISRDNAKNTVYLQMNSLKPEDTAVYYCAVARSAYYRGNHWGQGTQVTVSS”, the “polyreactivity (PSR sort gate)” value is “high polyreactivity”.

Take “QVQLVESGGALVQAGGSLRLSCAASGGTFYTYAMGWYRQAPGKERELVATITRRGGSTYYADSVKGRFTISRDNAKNTVYLQMKSLKPEDTAVYYCAARSYISTRPIMGYWGQGTQVTVSS”: the “polyreactivity (PSR sort gate)” value is listed as “high polyreactivity”.

With “QVQLVESGGALVQAGGSLRLSCAASGLTFIAYALGWYRQAPGKERELVASIDSGGGTNYADSVKGRFTISRDNAKNTVYLQMNSLKREDTAVYYCAAESPLYWVDDFESGWRYYYWGQGTHVTVSS”, the “polyreactivity (PSR sort gate)” value is “low polyreactivity”.

With “QVQLVESGGALVQAGGSLRLSCAASGNTFIPNAMGWYRQAPGKERELVAAIRASGGSTYYADSVKGRFTISRDNAKNTVYLQMNSLKPEDTAVYYCNADIWYKTYDYWGQGTQVTVSS”, the “polyreactivity (PSR sort gate)” value is recorded as “low polyreactivity”.

In the case of “QVQLVESGGALVQAGGSLRLSCAASGRIFRAYAMGWYRQAPGKERELVAAISRSGGSTYYADSVKGRFTISRDNAKNTVYLQMNSLKPEDTAVYYCAAEYYFIDTGEYDYWGQGTQVSVSS”, the “polyreactivity (PSR sort gate)” value was “high polyreactivity”.

Regarding “QVQLVESGGALVQAGGSLRLSCAASGRILRGNAMGWYRPAPGKERELVADINYSDGSTYYADSVKGRFTISRDNAKNTVYLQMNSLKPEDTAVYYCAKKNPLVFTSGMDYWGQGTQVTVSS”, the “polyreactivity (PSR sort gate)” value is “low polyreactivity”.

As to “QVQLVESGGALVQAGGSLRLSCAASGRTFYFYTMGWYRQAPGKERDLVAAISWSGGSTYYADSVKGRFTISRDTAKNNFYLQMKRLKPEDTAVYYCAASSRWEQSKDQFYYWGQGTHVTVSS”, the “polyreactivity (PSR sort gate)” value is given as “low polyreactivity”.

As for “QVQLVESGGALVQAGGSLRLSCAASGRTYRWYAMGWYRQAPGKESELVARIRGSGGSTYADSVKGRFTISRDNAKNTVNLEMNSLTPEDTAVYYCARKVTGRNGAQFYVSYYYWGQGTQVPVSS”, the “polyreactivity (PSR sort gate)” value is reported as “low polyreactivity”.

Regarding “QVQLVESGGALVQAGGSLRLSCAASGSIFDQYTMRWYRQAPGKDRELVAAIRFSGGSTSYADSVKGRFTISRDNAKNTVYLQMNSLKPDDTAVYYCNADSQPWRFGYWGQGTQVTVSS”, the “polyreactivity (PSR sort gate)” value is given as “low polyreactivity”.

For the sequence “QVQLVESGGALVQAGGSLRLSCAASGSIFYKYTMGWYRQAPGKERELVAAISRSGGSTYYADSVKGRFTISRDNAKNTVYLQMNSLKTEDTAVYYCATTGRVPGEYWGQGTQVTVSS”, the “polyreactivity (PSR sort gate)” value is recorded as “high polyreactivity”.

“QVQLVESGGALVQAGGSLRLSCAASGSTFPTNAMGWYRQAPGKERELVAAITSSTGSTYYADSVKGRFTISRDNAKNTVYLQMNSLKPEDTAVYSCAKSKQWQRYLRGNYWGQGTQVTVSS”: the “polyreactivity (PSR sort gate)” value is reported as “low polyreactivity”.

Take “QVQLVESGGALVQAGGSLRLSCAASGSTFSWYAMGWYRQAPGKERELVAAITTRGGSTYYADSVKGRFTISRDNAKNTVYLQMTRLKPEDTAVYYCAADDGWDFGRGRYDYWGQGTQVTVSS”: the “polyreactivity (PSR sort gate)” value is recorded as “low polyreactivity”.

For the sequence “QVQLVESGGALVQAGGSLRLSCAASGSTFVTYAMGWYRQAPGKEREFVAAISWRGGRTYYADSVKGRFSISRDNAKNTVYLQMNSLKPEDTAVYYCAVRTLQRGKHDLGVDYWGQGTQVTVSS”, the “polyreactivity (PSR sort gate)” value is on record as “high polyreactivity”.

For “QVQLVESGGALVQAGGSLRLSCAASGSTFYYYAMGWYRQAPGKEREFVAAISGGDGTTSYADSVKGRFTISRDNAKKTVYLQMNSLKPEDTAFYYCASPYTSYLYGYDYWGQGTQVTVSS”, the “polyreactivity (PSR sort gate)” value is “low polyreactivity”.

Regarding “QVQLVESGGALVQAGGSLRLSCAASGSTLVTNAMGWYRKAPGKERELVAAITFSGGTTYYADSVKGRFTISRDNAKNTVYLQMNSLTPEDTAVYYCGAEIWLEYVGYDYWGQGTQVTVSS”, the “polyreactivity (PSR sort gate)” value is reported as “high polyreactivity”.

“QVQLVESGGALVQAGGSLRLSCAASGYIFDRYAMGWYRQAPGKEWELVAAISGRGGSTYYADSVKGRFTISRDNAKNTVYLQMNSLKPEDTAVYYCAAARSWHLYHRYDYWGQGTQVTVSS”: the “polyreactivity (PSR sort gate)” value is listed as “high polyreactivity”.

For the sequence “QVQLVESGGALVQAGGSLRLSCSASGSLFIYYAIRWYRQAPGKERELVAAISISGARTYYADSVKGRFTNSRDNAKNTVYLQMNSLKPEDTAVYYCNVSSRRLRGLDYWGQVTQVTVSS”, the “polyreactivity (PSR sort gate)” value is recorded as “low polyreactivity”.

On to “QVQLVESGGALVQAGGSLRLSSAASGLTFYYYAMGRYRQAPGKERELVAAITGSGGRTYYADSVKGRFTISRDNAKNNVYLQMNSLKPEDTAVYYCAASWPNYLYEYWGQGTQVTVSS”, for which the “polyreactivity (PSR sort gate)” value is recorded as “high polyreactivity”.

Turning to “QVQLVESGGALVQAGGSLRLTSAASGFTFFRNAMRWYRQAPGKERELVAAINWSGGSTYYADSVKGRFTISRDNAKNTVYLQMHSLKPEDTAVYFCAADLSSTESDYWRQGTQVTVSS”, the “polyreactivity (PSR sort gate)” value was “high polyreactivity”.

On to “QVQLVESGGALVQAGVSLRLSCSASGSTFTKYAIRWYRQAPGKERELVAAITRGGSTTYADSVKGRFTISRDNAKNTVYLQMNSLKPEDTAVYFCNAQYQSGYYTSYPERFDYRGQGTQVTVSS”, for which the “polyreactivity (PSR sort gate)” value was “low polyreactivity”.

In the case of “QVQLVESGGCIVQAGGSLRFSCAASGFTFNRYAMGWYRQAPGKERELVAAITRRGGSTYYADSVKGRFTISRDNAKNTVYFQMNSLKPEDTAVYYCNVDFQAYGIPMDYWGQGTQVNVSS”, the “polyreactivity (PSR sort gate)” value is listed as “high polyreactivity”.

For “QVQLVESGGCLDQAGGSLRLSSAASGRIFFGYAMGWYRQAPGKEREFVAAISSVGSTNYADSVKGRFTISRDNAKNTVYLQMNSLKPEDTAVYYCAAAPRSGGKYGSDGGDYWGQGTQVTVSS”, the “polyreactivity (PSR sort gate)” value is “low polyreactivity”.

Take “QVQLVESGGCLLQAGGSLRLSCAASGYIFERNAMGWYRQAPGKERELVAAITDDGDDTYYADSVKGRFTISRDNEKNTVYLQMNSLKPEDTAVYYCAKDLYYGDYYYWGQGTQVTVSS”: the “polyreactivity (PSR sort gate)” value is reported as “low polyreactivity”.

On to “QVQLVESGGCLVKAGCSLRLSCAASGRIFFVNAMGWYRPAPGKECELVAAISRGGSTNYADSVKGRFTISRDNAMNTVYLQMNILKPEDTEVYYCAAGYVRYPGVIDEYWGPGTQVTVSS”, for which the “polyreactivity (PSR sort gate)” value is reported as “low polyreactivity”.

On to “QVQLVESGGCLVQAGCSGRLSCAASGYTLTINVMGWDRQAPGKERELVAAITTSCASTNYADSVKGRFTISRDNAKNSVYLKMNSLKPEDTSVYYCAADYLSFVVVKLYGYWGQRTQVTVSS”, for which the “polyreactivity (PSR sort gate)” value is “low polyreactivity”.

In the case of “QVQLVESGGCLVQAGCSLSLSCAASGITFRPYAMGWYRQAPGKERELVAAIRWDGGSTYYADSVKGRFTISRDNAKNTVYLQMNSMKPEDTAVDYCAAKRPTHVRKMDYWGQGTQVTVSS”, the “polyreactivity (PSR sort gate)” value is listed as “high polyreactivity”.

Consider “QVQLVESGGCLVQAGGRLRLICAASGRTFFFNAMGWYRQAPGKERELVAAISRGGSRTFYADSVKGRFTISRDNEKNTVYLQMNSLKPEDNAVYYCNDVAQSGRYDYWGQGTQVTVSS”, for which the “polyreactivity (PSR sort gate)” value was “high polyreactivity”.

For “QVQLVESGGCLVQAGGRLRLSCAASGRIFRGYAMGWYRQAPGKERELVARITSGGRTYYADSVKGRFTISRDNAKNTVYLQMNSLKPEDTAVYYCAAPPSVRTRKAYYYWGQGTQVTVSS”, the “polyreactivity (PSR sort gate)” value was “high polyreactivity”.

“QVQLVESGGCLVQAGGRLRLSCAASGYIFDRNAMGWYRQAPGTERELVAAITKRGGITYYADSVKGRFTISRDNAKFSGYLQMNSLKPEDTAVYYCNALARSSRYDYWGQGTQVTVSS”: the “polyreactivity (PSR sort gate)” value was “low polyreactivity”.

Consider “QVQLVESGGCLVQAGGSHRLSCAASGYIVWENAMGWYRPAPGKERELVAAITVTGGGTYYADSVKGRFTISRDNSKNPGYLHMNSLKPEDTAVYYCAPDEDNPWLWFYYWGQGTQVTVSS”, for which the “polyreactivity (PSR sort gate)” value is recorded as “low polyreactivity”.

As for “QVQLVESGGCLVQAGGSHRLSCASSGRTFYRKAMGWYRQAPGKERELVAAISSGTSTNYADSVKGRFTISRDYAKNTVYLQMNSLKPEDTAVYYCAKERPRGAPAYYSRFYDYWGQGTQVTVSS”, the “polyreactivity (PSR sort gate)” value is “high polyreactivity”.

The values above are taken from the nanobody polyreactivity screen of Harvey et al. (2022).
